Source: IntAct's records for PubMed 27857056

B1: UDP-glucuronosyltransferase 2B7 (Homo sapiens), P16662 (parent)
chain: MSVKWTSVILLIQLSFCFSSGNCGKVLVWAAEYSHWMNIKTILDELIQRGHEVTVLASSASILFDPNNSSALKIEIYPTSLTKTELENFIMQQIKRWSDLPKDTFWLYFSQVQEIMSIFGDITRKFCKDVVSNKKFMKKVQESRFDVIFADAIFPCSELLAELFNIPFVYSLSFSPGYTFEKHSGGFIFPPSYVPVVMSELTDQMTFMERVKNMIYVLYFDFWFEIFDMKKWDQFYSEVLGRPTTLSETMGKADVWLIRNSWNFQFPYPLLPNVDFVGGLHCKPAKPLPKEMEDFVQSSGENGVVVFSLGSMVSNMTEERANVIASALAQIPQKVLWRFDGNKPDTLGLNTRLYKWIPQNDLLGHPKTRAFITHGGANGIYEAIYHGIPMVGIPLFADQPDNIAHMKARGAAVRVDFNTMSSTDLLNALKRVINDPSYKENVMKLSRIQHDQPVKPLDRAVFWIEFVMRHKGAKHLRVAAHDLTWFQYHSLDVIGFLLVCVATVIFIVTKCCLFCFWKFARKAKKGKND
partner: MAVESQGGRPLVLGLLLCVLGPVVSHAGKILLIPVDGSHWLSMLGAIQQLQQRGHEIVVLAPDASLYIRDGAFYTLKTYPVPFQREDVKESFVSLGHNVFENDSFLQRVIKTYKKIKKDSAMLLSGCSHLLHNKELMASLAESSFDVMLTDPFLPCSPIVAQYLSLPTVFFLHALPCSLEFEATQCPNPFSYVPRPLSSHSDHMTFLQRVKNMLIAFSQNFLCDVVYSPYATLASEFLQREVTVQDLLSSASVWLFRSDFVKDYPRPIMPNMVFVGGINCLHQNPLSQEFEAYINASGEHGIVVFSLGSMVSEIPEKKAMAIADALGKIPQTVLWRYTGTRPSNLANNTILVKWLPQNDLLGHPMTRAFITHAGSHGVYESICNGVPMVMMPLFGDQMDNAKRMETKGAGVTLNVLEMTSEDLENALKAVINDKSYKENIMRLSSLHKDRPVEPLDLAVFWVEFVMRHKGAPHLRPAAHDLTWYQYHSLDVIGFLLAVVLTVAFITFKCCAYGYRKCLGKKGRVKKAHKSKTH
B2: UDP-glucuronosyltransferase 1A9 (Homo sapiens), O60656-1 (parent)
chain: MACTGWTSPLPLCVCLLLTCGFAEAGKLLVVPMDGSHWFTMRSVVEKLILRGHEVVVVMPEVSWQLGRSLNCTVKTYSTSYTLEDLDREFKAFAHAQWKAQVRSIYSLLMGSYNDIFDLFFSNCRSLFKDKKLVEYLKESSFDAVFLDPFDNCGLIVAKYFSLPSVVFARGILCHYLEEGAQCPAPLSYVPRILLGFSDAMTFKERVRNHIMHLEEHLLCHRFFKNALEIASEILQTPVTEYDLYSHTSIWLLRTDFVLDYPKPVMPNMIFIGGINCHQGKPLPMEFEAYINASGEHGIVVFSLGSMVSEIPEKKAMAIADALGKIPQTVLWRYTGTRPSNLANNTILVKWLPQNDLLGHPMTRAFITHAGSHGVYESICNGVPMVMMPLFGDQMDNAKRMETKGAGVTLNVLEMTSEDLENALKAVINDKSYKENIMRLSSLHKDRPVEPLDLAVFWVEFVMRHKGAPHLRPAAHDLTWYQYHSLDVIGFLLAVVLTVAFITFKCCAYGYRKCLGKKGRVKKAHKSKTH
partner: B1 partner
B3: UDP-glucuronosyltransferase 1A9 (Homo sapiens), O60656-1 (parent)
chain: B2 chain
partner: B1 chain
B4: UDP-glucuronosyltransferase 1A9 (Homo sapiens), O60656-1 (parent)
chain: B2 chain
partner: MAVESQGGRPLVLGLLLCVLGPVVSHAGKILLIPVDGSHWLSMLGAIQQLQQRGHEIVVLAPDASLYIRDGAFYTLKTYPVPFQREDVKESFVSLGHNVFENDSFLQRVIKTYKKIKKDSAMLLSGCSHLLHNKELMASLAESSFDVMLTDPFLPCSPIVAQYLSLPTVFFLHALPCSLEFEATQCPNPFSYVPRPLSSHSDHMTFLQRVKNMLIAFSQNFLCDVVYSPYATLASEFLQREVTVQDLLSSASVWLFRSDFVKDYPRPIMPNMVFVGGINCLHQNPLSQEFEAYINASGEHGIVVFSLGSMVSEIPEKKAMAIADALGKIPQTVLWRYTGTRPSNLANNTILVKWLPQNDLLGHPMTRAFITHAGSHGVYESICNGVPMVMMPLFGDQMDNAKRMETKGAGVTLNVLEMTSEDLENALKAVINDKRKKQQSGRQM
B5: UDP-glucuronosyltransferase 2B7 (Homo sapiens), P16662 (parent)
chain: B1 chain
partner: B2 chain
B6: UDP-glucuronosyltransferase 2B7 (Homo sapiens), P16662 (parent)
chain: B1 chain
partner: B4 partner

Variants of: B1
Details: with UGT1A1, P22309-1

| effect of a mutation on the interaction | Variant |
| --- | --- |
| with no effect | A71S |
| with no effect | D398N |

Variants of: B2
Details: with UGT1A1, P22309-1

| effect of a mutation on the interaction | Variant |
| --- | --- |
| with no effect | D256N |
| with no effect | M33T |
| with no effect | C3Y |

Variants of: B3
Details: with ud2b7_human UGT2B7, P16662

| effect of a mutation on the interaction | Variant |
| --- | --- |
| with no effect | C3Y |
| with no effect | D256N |
| with no effect | M33T |

Variants of: B4
Details: with UGT1A1, P22309-2

| effect of a mutation on the interaction | Variant |
| --- | --- |
| with no effect | M33T |
| with no effect | C3Y |
| with no effect | D256N |

Variants of: B5
Details: with UGT1A9, O60656-1

| effect of a mutation on the interaction | Variant |
| --- | --- |
| with no effect | A71S |
| with no effect | D398N |

Variants of: B6
Details: with UGT1A1, P22309-2

| effect of a mutation on the interaction | Variant |
| --- | --- |
| with no effect | A71S |
| disrupting interaction strength | D398N |
